Reference: the supplement of paper PMC9233669
Variants at the floor of the assay were thinned out.

Key:
[1] = tested on: biotinyl-Trp-oxazolone; experiment: self-aminoacylation, catalytic enhancement (BWO) (fold over background); higher = more active; k-Seq, kA / k0A0; sequences stand for … in GGGAAUGGAUCCACAUCUACGAAUUC…UUCACUGCAGACUUGACGAAGCUG
In short: (§1)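 Mutagenized RNA pools with a 21-nt variable region (0.43 μM) were reacted with each biotinyl-aminoacyl-oxazolone at 2–1250 μM for 90 minutes at room temperature, in 50 μL HEPES/NaCl/KCl/MgCl2/CaCl2 buffer containing 5% acetonitrile at pH 6.9–7.0. RNA captured on streptavidin was quantified by triplicate qPCR and by Illumina sequencing. The fraction reacted for each sequence was fit to a pseudo-first-order model with bootstrapping, and catalytic enhancement is the median kA divided by the uncatalyzed rate, taken as the low-activity peak of a bimodal Gaussian fit.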

[2] = tested on: biotinyl-Phe-oxazolone; experiment: self-aminoacylation, catalytic enhancement (BFO) (fold over background); higher = more active; k-Seq, kA / k0A0; sequences stand for … in GGGAAUGGAUCCACAUCUACGAAUUC…UUCACUGCAGACUUGACGAAGCUG
In short: as §1

| Sequence | self-aminoacylation [1] | self-aminoacylation [2] |
| --- | --- | --- |
| CUACUUCAAACAAUCGGUUUA [Fam1A.1 aminoacylation ribozyme variant] | 2.11 | 4.11 |
| AAGGUUGCUAAUAGUCGCAGG [Fam3.1 aminoacylation ribozyme variant] | 2.28 | 3.23 |
| CUACUUCAACCAAUCGGUAUG [Fam1A.1 aminoacylation ribozyme variant] | 4.25 | 9.31 |
| CUGCACUUCAAGCAAUCGGUC [Fam1B.1 aminoacylation ribozyme variant] | 28.1 | 52 |
| CUACACUUCAAGGAAUCGGUC [Fam1B.1 aminoacylation ribozyme variant] | 4.18 | 3.89 |
| CGAGUUCAAACAAUCGGUCUG [Fam1A.1 aminoacylation ribozyme variant] | 4.57 | 6.84 |
| CUACUUCAAUGAAUCGGUCUG [Fam1A.1 aminoacylation ribozyme variant] | 5.68 | 7.24 |
| CUACACUUCAAGUAAUCGGUC [Fam1B.1 aminoacylation ribozyme variant] | 7.07 | 13.1 |
| CUAAUUCAAACAAUCGGUCUG [Fam1A.1 aminoacylation ribozyme variant] | 3.52 | 7.13 |
| CUACUUCAAACAAUCGGUCCU [Fam1A.1 aminoacylation ribozyme variant] | 3.25 | 6.8 |
| CCACUUCAAACAAUCAGUCUG [Fam1A.1 aminoacylation ribozyme variant] | 10.1 | 29.2 |
| CCAGACUUCAAGUAAUCGGUC [Fam1B.1 aminoacylation ribozyme variant] | 8.35 | 11.5 |
| AAACUUCAAACAAUCGGUCUG [Fam1A.1 aminoacylation ribozyme variant] | 18.7 | 30.9 |
| CUACUUCAAACAAUCAGUCAG [Fam1A.1 aminoacylation ribozyme variant] | 2.43 | 6.15 |
| CUACACUUCAACCAAUCGGUC [Fam1B.1 aminoacylation ribozyme variant] | 30 | 59.2 |
| CUACUUCAAACAAUCGGACUG [Fam1A.1 aminoacylation ribozyme variant] | 7.87 | 17.5 |
| CUACUUCAAACAAUCGGUCUC [Fam1A.1 aminoacylation ribozyme variant] | 24.6 | 52.6 |
| CUACUUCAAACAAUCAGUCUG [Fam1A.1 aminoacylation ribozyme variant] | 9.7 | 27.8 |
| CAACUUCAAACAAUCGGUCCG [Fam1A.1 aminoacylation ribozyme variant] | 4.86 | 5.44 |
| CUACGUCAAAAAAUCGGUCUG [Fam1A.1 aminoacylation ribozyme variant] | 2.35 | 5.5 |
| AAGUUAGCUAAUAGUCGUAAG [Fam3.1 aminoacylation ribozyme variant] | 3.54 | 14 |

| Sequence | self-aminoacylation [1] | self-aminoacylation [2] |
| --- | --- | --- |
| CUAAUUCAAACAAUCGGCCUG [Fam1A.1 aminoacylation ribozyme variant] | 3.89 | 5.4 |
| CUCCUUCAAACAAUCAGUCUG [Fam1A.1 aminoacylation ribozyme variant] | 7.05 | 20 |
| ACGUUUGCUAAUAGUCGCAAG [Fam3.1 aminoacylation ribozyme variant] | 3.66 | 9.06 |
| CCUCACUUCAAUCAAUCGGUC [Fam1B.1 aminoacylation ribozyme variant] | 17.9 | 39.5 |
| CCACACUUCAAUCGAUCGGUC [Fam1B.1 aminoacylation ribozyme variant] | 2.43 | 2.48 |
| AUUGACCUAGGUCAUCGGGAG [Fam2.2 aminoacylation ribozyme variant] | 2.04 | 3.29 |
| CCAUACUUCAAUCAAUCGGUC [Fam1B.1 aminoacylation ribozyme variant] | 15.9 | 31.2 |
| GUACUUCAAACAAUCGGUAUG [Fam1A.1 aminoacylation ribozyme variant] | 9.84 | 11.5 |
| CUACUUCAAAUAAUCGGUAUG [Fam1A.1 aminoacylation ribozyme variant] | 3.96 | 7.28 |
| CCAAACUUCAACCAAUCGGUC [Fam1B.1 aminoacylation ribozyme variant] | 27.5 | 43.8 |
| CCACACUUCAAUGAAUCGGUC [Fam1B.1 aminoacylation ribozyme variant] | 10.3 | 14.4 |
| AUUCACCUCGGUCAUCAGGUG [Fam2.2 aminoacylation ribozyme variant] | 2.02 | 4.3 |
| AAGUUUGCCAAUUGUCGCAAG [Fam3.1 aminoacylation ribozyme variant] | 2.15 | 2.77 |
| AUACUUCAAACAAUCGGUCUG [Fam1A.1 aminoacylation ribozyme variant] | 9.11 | 14.7 |
| AAGUAUGCUAAUAGUCGCAAG [Fam3.1 aminoacylation ribozyme variant] | 6.46 | 22.9 |
| AAGCUUGAUAAUAGUCGCAAG [Fam3.1 aminoacylation ribozyme variant] | 2.02 | 2.72 |
| AUGUUUGCUAAUAGUCGCAAG [Fam3.1 aminoacylation ribozyme variant] | 4.22 | 12.9 |
| CUUCUUCAAACAAUCGGUCCG [Fam1A.1 aminoacylation ribozyme variant] | 2.74 | 3.96 |
| CCACAAUUCAACCAAUCGGUC [Fam1B.1 aminoacylation ribozyme variant] | 5.9 | 6.75 |
| CUCCUUCAAACAAUCGGUGUG [Fam1A.1 aminoacylation ribozyme variant] | 6.8 | 8.49 |
| ACAAACUUCAAGCAAUCGGUC [Fam1B.1 aminoacylation ribozyme variant] | 9.7 | 15 |

| Sequence | self-aminoacylation [1] | self-aminoacylation [2] |
| --- | --- | --- |
| CAACCCUUCAAGCAAUCGGUC [Fam1B.1 aminoacylation ribozyme variant] | 2.72 | 2.9 |
| CCGCACUUCAAGAAAUCGGUC [Fam1B.1 aminoacylation ribozyme variant] | 10.3 | 12.2 |
| CUACUUCAAACAAUCGGUCUG [Fam1A.1 aminoacylation ribozyme variant] | 31.4 | 67.9 |
| UCAAACUUCAAGCAAUCGGUC [Fam1B.1 aminoacylation ribozyme variant] | 15.9 | 25.8 |
| CUAAUUCAAACAAUCGGUCUC [Fam1A.1 aminoacylation ribozyme variant] | 2.9 | 6.39 |
| AAGUUCUCUAAUAGUCGCAAG [Fam3.1 aminoacylation ribozyme variant] | 2.07 | 3.34 |
| CUAUUUCAAACAAUCGGCCUG [Fam1A.1 aminoacylation ribozyme variant] | 6.15 | 6.32 |
| AGGUGUGCUAAUAGUCGCAAG [Fam3.1 aminoacylation ribozyme variant] | 2.52 | 5.87 |
| CCACACUUCAAAUAAUCGGUC [Fam1B.1 aminoacylation ribozyme variant] | 13.7 | 23.8 |
| CAAAUUCAAACAAUCGGUCUG [Fam1A.1 aminoacylation ribozyme variant] | 3.94 | 6.39 |
| CCAAACUUCAAGCAAUCGGUU [Fam1B.1 aminoacylation ribozyme variant] | 4.36 | 5.01 |
| UUACUCCAAACAAUCGGUCUG [Fam1A.1 aminoacylation ribozyme variant] | 2.69 | 3.73 |
| CCAUACUUCAACCAAUCGGUC [Fam1B.1 aminoacylation ribozyme variant] | 17.2 | 32.7 |
| ACACACUUCAAGCAAUCGGUC [Fam1B.1 aminoacylation ribozyme variant] | 13.1 | 27.1 |
| CUACUUCAAACAAUCGGUCGC [Fam1A.1 aminoacylation ribozyme variant] | 26.2 | 46.9 |
| CGGCACUUCAAGCAAUCGGUC [Fam1B.1 aminoacylation ribozyme variant] | 20.1 | 34.7 |
| CCUCACUUCAAGAAAUCGGUC [Fam1B.1 aminoacylation ribozyme variant] | 7.71 | 11 |
| CUACUUCAAUAAAUCGGUCUG [Fam1A.1 aminoacylation ribozyme variant] | 4.71 | 7.8 |
| CAACUUCAAACAAUCGGUCUC [Fam1A.1 aminoacylation ribozyme variant] | 37.7 | 75.3 |
| CUACUUCAAACAAUCGGUGUG [Fam1A.1 aminoacylation ribozyme variant] | 5.78 | 10.2 |
